Data as given in paper PMC2203988.

Tested on: U1A N-terminal RRM
Assay: EMSA
Conditions: 10 mM Tris-HCl pH 7.4, 250 mM NaCl, 1 mM EDTA, 0.5% Triton X-100, 1 mg/mL tRNA, 25 pM RNA, at least 45 min, gel at 25 C (A6P, A6c1A and A6G of Table 3 omitted: …)

With A1-2AP SL2 RNA the Kd (loop A1 to 2-aminopurine) was 40 nM.

With A1DAP SL2 RNA the Kd (loop A1 to 2,6-diaminopurine (DAP)) was 40 nM.

For A1G SL2 RNA, the Kd was 1400 nM.

A1G/C10A SL2 RNA was tested, and the Kd was 1300 nM.

A1I SL2 RNA gave a Kd (loop A1 to inosine) of 16 nM.

In the case of A1P SL2 RNA, the Kd (loop A1 to purine (6-NH2 replaced by H)) is reported as 0.9 nM.

In the case of A1c1A SL2 RNA, the Kd (loop A1 to 1-deazaadenosine (c1A)) is reported as 0.7 nM.

For A6-2AP SL2 RNA, the Kd (loop A6 to 2-aminopurine) was 700 nM.

A6DAP SL2 RNA was tested, and the Kd (loop A6 to 2,6-diaminopurine (DAP)) was 110 nM.

A6I SL2 RNA gave a Kd (loop A6 to inosine) of 8000 nM.

C10A SL2 RNA showed a Kd of 0.6 nM.

Work on G4-2AP SL2 RNA yielded a Kd (loop G4 to 2-aminopurine) of 4000 nM.

G4A SL2 RNA was tested, and the Kd was 11000 nM.

For G4DAP SL2 RNA, the Kd (loop G4 to 2,6-diaminopurine (DAP)) was 2000 nM.

Substance G4I SL2 RNA has a Kd (loop G4 to inosine) of 3 nM.

Work on G4c7dG SL2 RNA yielded a Kd (loop G4 to 7-deaza-2'-deoxyguanosine (c7dG)) of 31 nM.

G4dG SL2 RNA gave a Kd (loop G4 to 2'-deoxyguanosine) of 0.11 nM.

WT SL2 RNA was tested, and the Kd was 0.3 nM.
